Experimental data from US20250114431A1, “COMPOUND, COMPOSITION AND METHODS FOR LOWERING CIRCULATING GLUCOSE” (THE HONG KONG POLYTECHNIC UNIVERSITY, priority 2023, published 2025).

Columns and labels:
primary hepatocytes = experiment: Glucose uptake assay (2DG6P) in primary hepatocytes; assay type: cell-based
Method: (§1) To verify that the glucose homeostasis is regulated through liver or hepatocytes by overexpression of Plac9 in an insulin-independent manner, an in vitro insulin secretion assay was performed on confluent pancreatic beta cells, MIN6, in each well treated by […] of Exendin-4 or different concentrations of recombinant Plac9 of mouse origin at 10, 100 and 1000 nM (n=8) and measured the insulin content of each well by a mouse insulin ELISA kit. […] A glucose uptake assay was performed on primary hepatocytes and hepatic cell line, HepG2, treated with different concentrations (from 0.125 or 0.25 to 1.0 μM) in the presence or absence of exogenous 10 nM insulin, and the results are shown in FIGS. 5B and 5C, respectively.

HFD-fed obese mice = experiment: Recombinant Plac9 in high-fat diet (HFD)-induced obese, diabetic (DM2) mouse model, biometric data and glucose tolerance test; assay type: in vivo, C57BL/6J mice; settings: vs PBS control
Method: Turning to FIG. 2A, 8-week-old male C57BL/6J mice (n=8) were fed with a high-fat diet (HFD) for 12 weeks to induce a diabetes mellitus type 2 (DM2) model and then treated with 2 mg/kg (per body weight; hereinafter as “BW”) of recombinant mouse Plac9 (synthesized and purified from E. coli expressing mouse Plac9 represented by SEQ ID NO: 2; hereinafter as “mPLAC9”) once daily via intraperitoneal (i.p.) injection for 18 days to evaluate its effects on glucose uptake and tolerance in an obese, diet-induced diabetic model. Body weight (FIG. 2B), fasting blood glucose level (FIG. 2C), feeding blood glucose level (FIG. 2D) and blood insulin level (FIG. 2E) were measured at the beginning of the i.p. injection and then once every 3 days until the end of the experiment (i.e., Day 3, 6, 9, 12, 15 and 18). Another group of HFD-fed mice was injected with PBS once daily and measured with the same biometric data as in the Plac9-injected group (treatment group) once every 3 days from the beginning of the injection until the end of the experiment.
Glucose tolerance test (GTT) was also performed in both the treatment and control groups at Day 0 and Day 15 of the experiment. […] At Day 15, the overall blood glucose level was also lower in the treatment group than that of the control group over the 90-minute time course (FIGS. 2H-2I).

[1] = tested on: MIN6 pancreatic beta cells; experiment: Glucose stimulated insulin secretion assay in MIN6 cells (mouse insulin ELISA); assay type: cell-based; settings: 10, 100 and 1000 nM, n=8; FIG. 5A
Method: as §1

[2] = tested on: STZ-induced diabetic mice; experiment: Recombinant Plac9 in streptozotocin (STZ)-induced insulin-deficient diabetic mouse model, biometric data and glucose tolerance test; assay type: in vivo, C57BL/6J mice
Method: Turning to FIG. 3A, 8-week-old male C57BL/6J mice (n=8) which were fed with standard chow (STC) diet were treated with streptozotocin (STZ) for 5 days to induce diabetes. Similar to Example 1, 2 mg/kg (BW) of recombinant mPLAC9 was administered to the STZ-induced diabetic mice via i.p. injection once daily for 18 days (treatment group). In parallel, PBS was injected to STZ-induced diabetic mice for 18 days as a control group.
GTT was also performed at Day 5 and Day 15 in this STZ-induced diabetic model. […] Similar trend was observed between the treatment and control groups at Day 15 (FIGS. 3H-3I).

B1: mPLAC9: recombinant mouse Plac9 synthesized and purified from E. coli expressing mouse Plac9 represented by SEQ ID NO: 2 (protein, listed as Mus musculus)
chain: EWGQGPRDTPGRRAAESPSSPGDLAGSPGCDRHAAVQRRLDIMEETVEKTVEHLEAEVTGLLGLLEELASNLPTGPFSPKPDLLGDDGF
- glucose uptake (primary hepatocytes; 0.125 to 1.0 μM, with or without 10 nM insulin, FIG. 5B): enhanced by Plac9 is in a dose-dependent manner
- glucose uptake on co-administration with insulin (primary hepatocytes; co-administration with 10 nM insulin, overall statement for liver or hepatocytes (primary hepatocytes and HepG2)): further enhance the glucose uptake
- body weight change (HFD-fed obese mice; 2 mg/kg BW i.p. once daily, 18 days, FIG. 2B): no obvious weight change
- fasting blood glucose level (HFD-fed obese mice; 2 mg/kg BW i.p. once daily, 18 days, FIG. 2C): no obvious changes
- feeding blood glucose level (HFD-fed obese mice; 2 mg/kg BW i.p. once daily, 18 days, FIG. 2D): no obvious changes
- blood glucose level in glucose tolerance test (GTT) (HFD-fed obese mice; Day 0, 90-minute time course, FIGS. 2F-2G): more significantly reduced
- blood insulin concentration (HFD-fed obese mice; Day 15, 2 mg/kg BW i.p. once daily, FIG. 2E): reduced
- overall blood glucose level in glucose tolerance test (GTT) (HFD-fed obese mice; Day 15, 90-minute time course, FIGS. 2H-2I): lower
- insulin secretion [1]: does not induce insulin secretion
- change in body weight ([2]; 2 mg/kg BW i.p. once daily, 18 days, treatment vs PBS control, FIG. 3B): similar
- change in fasting glucose level ([2]; 2 mg/kg BW i.p. once daily, 18 days, treatment vs PBS control, FIG. 3C): similar
- change in feeding glucose level ([2]; 2 mg/kg BW i.p. once daily, 18 days, treatment vs PBS control, FIG. 3D): similar
- overall blood glucose level in GTT ([2]; Day 0, 90-minute time course, vs PBS control, FIGS. 3F-3G): lower
- blood insulin level ([2]; Day 0 to Day 5, treatment vs PBS control, FIG. 3E): similar
- blood insulin concentration ([2]; from Day 5 till the end of the experiment, no change in control group, FIG. 3E): increased
- restoration of blood insulin level to the level measured at Day 0 ([2]; till the end of the experiment, FIG. 3E): could not be restored
